Measurements from paper PMC2864582.
Where two headings read alike, the source gives them in different places.

Experiments:
Test in all cases: fluorescence quenching
[1] = biological target: T1, hparp486 (Homo sapiens, UniProt P09874 1-486)
[2] = biological target: T1, hparp486; remark: listed apart in the source
[3] = biological target: T1, hparp486; remark: listed apart in the source

T1 sequence (P09874 1-486): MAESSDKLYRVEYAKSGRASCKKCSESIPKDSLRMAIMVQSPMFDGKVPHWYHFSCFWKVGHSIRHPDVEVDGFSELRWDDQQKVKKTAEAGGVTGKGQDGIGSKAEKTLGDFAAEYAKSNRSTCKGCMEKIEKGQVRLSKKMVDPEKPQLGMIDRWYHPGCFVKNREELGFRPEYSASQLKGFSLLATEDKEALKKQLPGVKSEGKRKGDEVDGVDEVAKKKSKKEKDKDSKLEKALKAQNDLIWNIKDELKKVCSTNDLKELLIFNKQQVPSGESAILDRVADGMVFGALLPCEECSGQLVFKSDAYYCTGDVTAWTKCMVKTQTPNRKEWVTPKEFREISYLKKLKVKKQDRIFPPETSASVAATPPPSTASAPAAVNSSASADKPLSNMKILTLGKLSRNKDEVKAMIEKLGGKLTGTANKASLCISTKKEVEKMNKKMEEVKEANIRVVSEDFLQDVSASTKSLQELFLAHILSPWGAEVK

B1: 30Ext (pos. B) (dsDNA)
DNA 1: ATCAGATAGCATCTGTGCGGCCGCTTAGGGTTAGGG
DNA 2: CCCTAAGCGGCCGCACAGATGCTATCTGAT
Kd [1]: 130 nM

B2: 30Ext (pos. A) (dsDNA)
DNA 1: B1 DNA 1
DNA 2: B1 DNA 2
Kd [2]: 68 nM

B3: 30Blunt (dsDNA)
DNA 1: ATCAGATAGCATCTGTGCGGCCGCTTAGGG
DNA 2: B1 DNA 2
Kd [3]: 282 nM
